Measurements from patent US20200030416A1 (CASE WESTERN RESERVE UNIVERSITY, published 2020).

Biological target: T1, integrin GPIIb-IIIa on ADP-activated human platelets (human, UniProt P08514 32-1039; P05106 27-788)
T1 construct: whole, on cells; no isolated integrin was tested; also called active platelet GPIIb-IIIa
Assay: human platelets (low platelet concentration, ADP) incubated on coverslips coated with cRGD-modified biotinylated liposomes; anti-CD62P fluorescence microscopy

- binding result: binds
B1: cyclic RGD peptide cyclo-CNPRGDY(OEt)RC (cRGD), conjugated to DSPE-PEG and displayed on liposomes (peptide)
peptide: CNPRGDYRC
modifications: not fully specified; cyclised by a disulphide between the terminal cysteines; Y(OEt) = O-ethyl tyrosine; N-terminus conjugated to DSPE-PEG2000-COOH; many copies on a ~150 nm liposome
notes: Tested only as a multivalent decoration on liposomes (2.5 mol %); also called GBP
